For this assay, the target named is biotin-labeled MSLN antigen (UniProt Q13421 296-580, limits assumed, biotin label (site not stated)). Nature of the assay: flow cytometry; CAR-T cells labeled with biotin-labeled MSLN antigen, detected with fluorescent streptavidin. The text has this:
The nucleic acid sequence encoding the CAR was expressed under the drive of promoter, and the lentivirus-transfected T cells were labeled with biotin-labeled MSLN antigen, and then detected with fluorescently labeled streptavidin, and determined by flow cytometry, which reflected the expression level of the CAR on the surface of T cells. The CAR positive rate of the CAR-T cells obtained in Example 3 was detected by the above method, and the FACS detection results were shown in the following table.

Chain of biotin-labeled MSLN antigen (Q13421 other isoform, or with tags, fused parts or gaps limits assumed): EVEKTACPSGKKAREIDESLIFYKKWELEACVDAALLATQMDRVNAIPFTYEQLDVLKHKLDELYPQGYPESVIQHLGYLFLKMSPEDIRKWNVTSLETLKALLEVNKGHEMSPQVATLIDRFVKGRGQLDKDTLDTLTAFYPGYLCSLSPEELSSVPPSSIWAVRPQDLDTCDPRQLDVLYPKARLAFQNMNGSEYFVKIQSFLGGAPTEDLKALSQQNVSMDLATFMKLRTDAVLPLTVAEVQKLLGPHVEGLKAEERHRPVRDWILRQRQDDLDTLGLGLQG

B1: G5-CAR (other)
chain: QVQLVQSGGGLVQPGRSLRLSCAASGFTFDDYAMHWVRQAPGKGLEWVSGISWNSGSIGYADSVKGRFTISRDNAKNSLYLQMNSLRAEDTALYYCAKDMGSSGWSPVDYWGQGTLVTVSSASGGGGSGGRASGGGGSDIQVTQSPSSLSASVGDRVTITCRASQGINHYLAWYQQKPGKAPKLLIYGASTLQTGVSSRFSGSGSGTEFTLTISSLQPEDFATYYCQQLNGYPLGYTFGQGTKVEIKRTTTPAPRPPTPAPTIASQPLSLRPEACRPAAGGAVHTRGLDFACDIYIWAPLAGTCGVLLLSLVITLYCKRGRKKLLYIFKQPFMRPVQTTQEEDGCSCRFPEEEEGGCELRVKFSRSADAPAYKQGQNQLYNELNLGRREEYDVLDKRRGRDPEMGGKPRRKNPQEGLYNELQKDKMAEAYSEIGMKGERRRGKGHDGLYQGLSTATKDTYDALHMQALPPR
notes: Chimeric antigen receptor on lentivirus-transduced human T cells; the signal peptide is left out here; also called G5 chimeric antigen receptor
As for B1, the CAR positive rate was 50.5%.

B2: G16-CAR (other)
chain: QVQLVQSGAEVTKPGASVKVSCRASGYPFSNFFMNWVRQAPGQGLEWMGIINPIGGSTTYAQKFQGRVTMTRDTSTDTVYMELSSLRSDDTAVYYCARSSSHLGAFDIWGQGTMVTVSSASGGGGSGGRASGGGGSDIQLTQSPSSVSASVGDRVTITCRASQSISTWVAWYQHKPGVAPKLLIYASPTLQSGVPSRFSGSGSGTDFTLTISSLQSEDFATYYCQQAHSFPITFGQGTRLEIKRTTTPAPRPPTPAPTIASQPLSLRPEACRPAAGGAVHTRGLDFACDIYIWAPLAGTCGVLLLSLVITLYCKRGRKKLLYIFKQPFMRPVQTTQEEDGCSCRFPEEEEGGCELRVKFSRSADAPAYKQGQNQLYNELNLGRREEYDVLDKRRGRDPEMGGKPRRKNPQEGLYNELQKDKMAEAYSEIGMKGERRRGKGHDGLYQGLSTATKDTYDALHMQALPPR
notes: Chimeric antigen receptor on lentivirus-transduced human T cells; the signal peptide is left out here; also called G16 chimeric antigen receptor
Turning to B2, the CAR positive rate is 41.5%.

Values taken from US20250269026A1 (CHENGDU KELUN PRECISION BIOTECHNOLOGY, published 2025).
